Molecular target: FITC-labeled alanine-extended version of the β2AR C-terminal peptide (TNDSLLA) (human)
Test: fluorescence polarisation

SNX27 PDZ domain, wild type (residues 39-131 of rat SNX27) (from UniProt Q8K4V4 39-131) (domain or fragment)
Kd: > 100 µM
